# Entries after “also recorded” stand apart in the source; their conditions may differ.
# B1: 1H5: anti-hNav1.7 mouse monoclonal antibody, IgG1, k; heavy chain SEQ ID NO: 121, light chain SEQ ID NO: 123 (antibody, V domains shown)
# VH: EVKLVESGGGLVKPGGSLKLSCAASGFTFRSYAMSWVRQTPEKGLEWVASISSGGSTYYPDSVKGRFTISRDNAGNILYLQMSSLRSEDTAMYYCARGYDGYYERIWYYAMDYWGQGTSVTVSSAKTTPPSVY
# VL: DIVMTQSQKFMSTSVGDRVTVSCKASQNVGTIVAWYQQKPGQSPKALIYSASYRFSGVPDRFTGSGSGTDFTLTISNVQSEDLAEYFCQQYNTYPLTFGSGTKLEIKRADAAPTVSIFPPSS
# modifications: Heavy chain of the 1H5 antibody without leader sequence; Light chain of the 1H5 antibody without leader sequence
# B2: 2G11: anti-hNav1.7 mouse monoclonal antibody, IgG2a, k; heavy chain SEQ ID NO: 117, light chain SEQ ID NO: 119 (antibody, V domains shown)
# VH: QVQLQQPGAELVKPGASVKLSCKASGYTFTTYWMHWVKQRPGQGLEWIGEINPSNGRANYNEKFKSKATLTVDKSSSTAYMQLSSLTSEDSAVYYCLRSLGYFDYWGQGTTLTVSSAKTTAPSVYPLAPG
# VL: DVVMTQSPLSLPVSLGDQASISCRSSQSLVHSNGNTYLHWYLQKAGQSPKFLIYKVSNRFSGVPDRFSGSGSGTDFTLKISRVEAEDLGVYFCSQSTHVPYTFGGGTKLEIKRADAAPTVSIFPPSS
# modifications: Heavy chain of the 2G11 antibody without leader sequence; Light chain of the 2G11 antibody without leader sequence
# Key:
# CHO-3E7 = test: Cell-ELISA on live CHO-3E7 cells; format: cell-based, Chinese hamster; conditions: hybridoma supernatant, OD450 nm
# Procedure: Cell-ELISA. Sterile 96-well plates (Costar #3595) were pre-treated with 50 μl/well of branched polyethyleneimine (PEI, Sigma Cat #408727) at 25 μg/ml in PBS for 30 min at room temperature. PEI was removed and CHO-3E7 or hNAv1.7-CHO (ChanTest cat #CT4003) were seeded at 6×10^5 cells per well in FreeStyle F17 Expression Medium (Gibco Cat #A1383501) and incubated overnight at 37° C., 5% CO2. Microplates were blocked with Starting block (Thermofisher Cat #37538) for 30 min at room temperature, and 50 μl of hybridoma supernatants were added and incubated at 4° C. for 3 h. Plates were washed 5 times with PBS and incubated for one hour at 4° C. with 50 μl of secondary antibody HRP-conjugated F(ab′)2 goat anti-mouse IgG (H+L) (Jackson Immunoresearch #115-036-062) diluted 1/5000 in blocking buffer. After 10 washes with PBS, 50 μl of TMB substrate solution (Pierce Cat #34021) was added and further incubated for 60 min at room temperature. Twenty-five μl/well of stop solution ([…] 1M) was added and OD450 nm measurements were done using a microplate reader (Spectramax 340 PC, Molecular Devices).
# [1] = tested on: CFA-induced thermal hyperalgesia; test: Hargreaves Model of Hyperalgesia in rats; format: in vivo, rat; conditions: for Maximum percentage of the effect (% Effect; % MPE): time of maximum (1, 2 or 4 h)
# Procedure: Hargreaves Model of Hyperalgesia in rats. Rats aged 4-6 weeks (weight range, 180-220 g) were used for intraplantar (ipl) administrations of various antibodies and evaluation of their efficacy in the Hargreaves model of inflammatory pain. Chronic inflammatory pain is induced by injecting a low volume (50 μl) of complete Freund's adjuvant (CFA; heat-killed M. tuberculosis—Sigma, St. Louis, Mo.—suspended in oil:saline 2:1 emulsion) into the right hind paw. The paw withdrawal latency in response to the application of a radiant stimulus onto the plantar surface of both right and left paw was measured using the plantar Analgesia Meter equipment for paw stimulation (IITC Life Science, Woodland Hills, Calif.). The time taken by the animal to respond by licking or flicking its paw is interpreted as positive response (paw withdrawal latency). After 48 h of the CFA injection, the baseline for latency paw withdrawal was measured and the mAbs tested. […] A cut-off time (20 sec) is established at the end of which the heat source shuts off automatically to avoid tissue damage. Animals were kept (randomized) one per cage and staff performing pain experiments are blinded to the content of injectable compounds. Percentage of maximum possible effect (% MPE) was calculated using the formula % MPE=(Test Latency−Baseline Latency)×100/(Cut-off−Baseline Latency).
# [2] = tested on: OD1-evoked Nav1.7-mediated spontaneous pain behaviours; format: in vivo, mouse; conditions: 100 μg, injected 60 minutes prior to OD1; 20 min after the injection
# VHH FC5 = test: Surface Plasmon Resonance of mAbs, FC5 control; format: binding; conditions: SPR; 25 °C
# Procedure: (§1) Surface Plasmon Resonance of mAbs. FC5 and FC5DIE3IR proteins were SEC purified using a Superdex 75 column (GE Healthcare) connected to an AKTAPurifier (GE Healthcare) in HBS-EP+ running buffer (10 mM HEPES, pH 7.4, containing 150 mM NaCl, 3 mM EDTA and 0.05% P20) at a flow rate of 1 ml/min. Monomeric eluted peaks were used to flow over Fc-capture 3A8 mAb surfaces. To prepare the 3A8 mAb surfaces, approximately 6000 RUs of anti-mouse IgG (GE Healthcare) was first immobilized on CM5 Series S sensor chips (GE Healthcare) at pH 5.0, using standard amine coupling methods previously reported (Hussack et al., 2011) and according to the manufacturer's instructions (GE Healthcare). HBS-EP running buffer used for SPR experiments. The mAb 3A8 was captured on the anti-mouse IgG surface using 10 μg/ml of mAb, 30 sec contact time and flow rate of 10 μl/min. IMAC-purified DI-D VHH was passed through a Superdex 75 (GE Healthcare) column for SEC purification in HBS-EP buffer (10 mM HEPES, pH 7.4, containing 150 mM NaCl, 3 mM EDTA and 0.005% P20), connected to an AKTAPurifier (GE Healthcare) at a flow rate of 1 ml/min. Test binding experiments of FC5 control and FC5DIE3IR involved flowing 1 μM concentrations of SEC-pure material over the mAb surface at a flow rate of 30 μl/min for 5 min. Surfaces could be regenerated using 10 mM glycine, pH 1.7, with a 120 sec pulse at 20 μl/min. All SPR experiments were evaluated with Biacore T200 Software v 3.0. For kinetic analysis, single cycle kinetic analysis was used by flowing a range of FC5DIE3IR concentrations (320 nM-20 nM) at a flow rate of 30 μl/min, with 600 sec contact time and 1200 sec dissociation. Regeneration conditions were the same as above. Data were fit to a 1:1 binding model and analyzed using the Biacore T200 Software v3.0.
# (§2) Surfaces were regenerated by washing with running buffer (HBS-EP). Data were analyzed with BIAevaluation 4.1 software as described (Hussack et al., 2011) and affinities determined using the steady state binding model.
# (§3) Surface Plasmon Resonance (SPR) for monoclonal antibodies.
# [3] = tested on: overlapping antigen-peptides derived from DIE3IR; test: ELISA of mAbs on overlapping antigen-peptides derived from DIE3IR; format: binding, human; conditions: peptides coated 100-500 ng/well
# Procedure: The peptides were custom-synthesized (Biomatik) and tested for antibody binding by ELISA. […] The wells were blocked with 1% BSA in TBS-T for 30 min and then incubated with 1:1000 dilution of anti-hNav1.7 mAb at room temperature (RT) for one hr. Following three TBS-T washes (3×5 min), mAb binding to peptides was detected by incubating with HRP-conjugated anti-mouse Fc antibody for 90 min at RT in TBS-T. The bound antibody was detected with SureBlue™ TMB reagent kit (KPL) by colorimetric measurement at 450 nm according to manufacturer's instructions.
# To identify the epitope for mAb 3A8 on DIE3IR, seven overlapping antigen-peptides were generated (FIG. 15A) and an ELISA was performed to determine the binding between these peptides and the various mAb (FIGS. 15C to 15I).
# glioblastoma U87MG cells = test: Soft agar assay, U87MG; conditions: mAb 1 μM
# [4] = tested on: ovarian cancer SKOV-3 cells; test: Soft agar assay, SKOV-3; conditions: mAb 1 μM; FIG. 24D
# [5] = tested on: glioblastoma U87MGvIII cells; test: Soft agar assay, U87MGvIII; conditions: mAb 1 μM; FIG. 24C
# hNav1.7 channels = hNav1.7 channels (Homo sapiens, UniProt Q15858, W1161R); test: Patch-clamp whole-cell recordings in hNav1.7-HEK293 cells; format: cell-based
# FC5DIE3IR [6] = molecular target: T1, FC5DIE3IR (Homo sapiens, UniProt Q15858); test: Surface Plasmon Resonance of mAbs, FC5DIE3IR; format: binding
# T1 construct: The supernatant was collected and loaded on a 5 ml MabSelect™ SuRe™ column; made in house; host or cells: CHO-3E7 (transient, pTT5 vector), purified from supernatant
# Procedure: as §1, §2, §3
# FC5DIE3IR [7] = molecular target: T1, FC5DIE3IR; test: Hydrogen-Deuterium Exchange Mass Spectrometry (HDX-MS); format: binding; conditions: labelling 1, 10 and 60 min
# [8] = −20 mV, after antibody application (1 μM)
# VHH FC5, sequence (as listed by the source): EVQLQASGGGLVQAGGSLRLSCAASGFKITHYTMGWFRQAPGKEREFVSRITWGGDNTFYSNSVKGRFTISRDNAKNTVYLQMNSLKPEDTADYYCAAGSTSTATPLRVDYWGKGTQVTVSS
Molecule,ELISA on live cells (duplicates) CHO-3E7 (CHO-3E7; duplicate 1),ELISA on live cells (duplicates) CHO-3E7 (CHO-3E7; duplicate 2),"Percentage of effect after injection (on left paw withdrawal) ([1]; 100 μg intraplantar, 0 h)","Latency paw withdrawal ([1]; 100 μg intraplantar, 1 h)","Percentage of effect after injection (on left paw withdrawal) ([1]; 100 μg intraplantar, 1 h)","Percentage of effect after injection (on left paw withdrawal) ([1]; 100 μg intraplantar, 2 h)","Percentage of effect after injection (on left paw withdrawal) ([1]; 100 μg intraplantar, 4 h)",Maximum percentage of the effect (% Effect; % MPE) ([1]; 100 μg intraplantar),Time spent in pain behaviors (saline plus OD1 = 100%) [2],"Binding to FC5 control (comment, in words) (VHH FC5)",Peptide in which the binding motif resides / that is bound [3],also measured
B1,−0.014,0.029,0%,7.97 ± 0.61 s,21.85% ± 3.71,35.23% ± 0.88,31.20% ± 5.18,35.23±0.88%,73.84%±16.78,No binding,Pep #3,Reduction of colony formation (glioblastoma U87MG cells; FIG. 24A): 37%; Reduction of colony formation [4]: 57%; Reduction of colony formation [5]: 60%
B2,−0.027,−0.025,0%,8.80 ± 1.02 s,27.98% ± 7.17,22.02% ± 2.08,25.80% ± 2.82,27.98±7.17%,63.47±4.78%,did not bind; also recorded: No binding,pep #40a,"Voltage-dependence of activation (shift V1/2 activation) (hNav1.7 channels; 1 μM): −4.7 mV; Voltage-dependence of the steady-state fast inactivation (shift V1/2 inactivation) (hNav1.7 channels; 1 μM): −13.9 mV; Onset time of the effect (exponential fit of the current decay, T) (hNav1.7 channels; 2 μM, single time-course recording of the figure): 57 s; Effect on hNav1.7 currents (in words) (hNav1.7 channels; example recordings, 1-3 μM): reduced the hNav1.7 currents; Fast inactivation (time constant) (hNav1.7 channels; [8]): 0.81 ms; Time-to-peak (hNav1.7 channels; [8]): 0.87 ms; Latency paw withdrawal ([1]; 100 μg intraplantar, 2 h): 7.86 ± 0.33 s; Latency paw withdrawal ([1]; 100 μg intraplantar, 4 h): 8.45 ± 0.44 s; Latency paw withdrawal ([1]; intraplantar, mAbs 100 μg, 11E5 dose not stated, time not given): 8.45 ± 0.44 s; ka (FC5DIE3IR [6]): 9560 M⁻¹ s⁻¹; kd (FC5DIE3IR [6]): 0.000526 s⁻¹; Rmax (RU) (FC5DIE3IR [6]; Fc-captured mAb, FC5-DIE3IR flowed, 25 °C): 84 RU; Binding to FC5DIE3IR (comment, in words) (FC5DIE3IR [6]; SPR, 25 °C): strong and specific binding; also recorded: strongly and specifically bound; Stabilization of FC5DIE3IR in response to mAb binding (residues, differential HDX-MS) (FC5DIE3IR [7]): Asn121-Tyr134; Reduction of colony formation (glioblastoma U87MG cells; different experiment, FIG. 24B): 60%"
